Columns and labels:
[1] = molecular target: T1, Arabidopsis thaliana phytochrome A (Arabidopsis thaliana, UniProt P14712); assay: Yeast two-hybrid analysis of specificity of interaction; type: cell-based; conditions: EGY48 yeast, Leu-drop out and X-gal media
T1 construct: expressed in transfected cells; host or cells: EGY48 yeast strain with pSH18-34 reporter
T1 sequence (P14712 1-1122): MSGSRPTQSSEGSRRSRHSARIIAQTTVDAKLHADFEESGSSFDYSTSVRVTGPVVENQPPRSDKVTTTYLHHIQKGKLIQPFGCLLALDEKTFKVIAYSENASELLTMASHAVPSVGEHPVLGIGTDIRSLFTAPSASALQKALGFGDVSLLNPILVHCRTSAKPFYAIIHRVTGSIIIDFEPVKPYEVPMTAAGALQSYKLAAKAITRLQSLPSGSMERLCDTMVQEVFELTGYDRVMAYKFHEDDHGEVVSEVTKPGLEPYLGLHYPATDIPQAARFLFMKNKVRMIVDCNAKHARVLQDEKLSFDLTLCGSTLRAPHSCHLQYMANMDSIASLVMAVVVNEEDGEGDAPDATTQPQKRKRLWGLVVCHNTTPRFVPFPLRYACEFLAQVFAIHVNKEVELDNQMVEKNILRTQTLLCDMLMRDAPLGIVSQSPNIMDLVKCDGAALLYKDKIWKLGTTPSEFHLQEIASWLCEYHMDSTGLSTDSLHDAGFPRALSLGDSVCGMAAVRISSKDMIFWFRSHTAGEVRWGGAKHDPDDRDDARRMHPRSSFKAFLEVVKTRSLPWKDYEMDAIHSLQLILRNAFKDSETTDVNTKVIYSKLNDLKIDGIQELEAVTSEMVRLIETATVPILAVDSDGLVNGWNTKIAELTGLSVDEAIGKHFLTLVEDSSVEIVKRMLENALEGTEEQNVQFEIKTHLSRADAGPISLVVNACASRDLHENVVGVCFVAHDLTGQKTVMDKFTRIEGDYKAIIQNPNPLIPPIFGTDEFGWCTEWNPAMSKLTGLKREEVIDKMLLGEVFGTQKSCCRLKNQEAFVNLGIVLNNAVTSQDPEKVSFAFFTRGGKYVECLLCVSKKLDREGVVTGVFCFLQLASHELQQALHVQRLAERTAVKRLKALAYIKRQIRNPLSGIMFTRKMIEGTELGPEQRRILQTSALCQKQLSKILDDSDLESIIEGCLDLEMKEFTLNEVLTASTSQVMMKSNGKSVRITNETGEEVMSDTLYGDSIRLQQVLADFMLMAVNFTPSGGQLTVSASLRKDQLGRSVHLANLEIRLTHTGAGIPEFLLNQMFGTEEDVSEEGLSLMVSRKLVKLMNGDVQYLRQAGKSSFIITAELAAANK
From the text: A pGilda vector and a pJG4-5 vector (OriGene Technologies) were used to prepare a prey and a bait, […] (see FIG. 4). In this case, as control groups to examine specific binding, hepatitis C virus (HCV) protein NS5A(N) (distributed from professor S K Jang, Department of Life Science, Pohang University of Science and Technology, Korea) and another plant protein SPINDLY(SPY) having the TPR domain (Jacobsen, S. E., et al., Proc. Natl. Acad. Sci. U.S.A. 93:9292-9296, 1996) were used. Furthermore, the prey and the bait were interchanged to observe protein-protein binding by a reciprocal method. The prepared prey and bait together with a pSH18-34 reporter plasmid (OriGene Technologies) were co-introduced into an EGY48 yeast strain (OriGene Technologies). Next, the transformants were selected on a media containing X-gal (5-bromo-4-chloro-3-indolyl-β-D-galactopyranoside; Rose Scientific Ltd.). Plate-growth assays were performed on Leu-drop out media and X-gal media.

phytochrome A = molecular target: T2, phytochrome A (Arabidopsis thaliana, UniProt P14712); assay: In vitro binding assay (GST pull-down of 35S-labeled TnT protein); conditions: 1 μg GST-PAPP5 fusion protein, 4° C.
T2 sequence (P14712 1-1122): T1 sequence (P14712 1-1122)
T2 sequence (Q84XU2 1-484 isoform Q84XU2-2 partner): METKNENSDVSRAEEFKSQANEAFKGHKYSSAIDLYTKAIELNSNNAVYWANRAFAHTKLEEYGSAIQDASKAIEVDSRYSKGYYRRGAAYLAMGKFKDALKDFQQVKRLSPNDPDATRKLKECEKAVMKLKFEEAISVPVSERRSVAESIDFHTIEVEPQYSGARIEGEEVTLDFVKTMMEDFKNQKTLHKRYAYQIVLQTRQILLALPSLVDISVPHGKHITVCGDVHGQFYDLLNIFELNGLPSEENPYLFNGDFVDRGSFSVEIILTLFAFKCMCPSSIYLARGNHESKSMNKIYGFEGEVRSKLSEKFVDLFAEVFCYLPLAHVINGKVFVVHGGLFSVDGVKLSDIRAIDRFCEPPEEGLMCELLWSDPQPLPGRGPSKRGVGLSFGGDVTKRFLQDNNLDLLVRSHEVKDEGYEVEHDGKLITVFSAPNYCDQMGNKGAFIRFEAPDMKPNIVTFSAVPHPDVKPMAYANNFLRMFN

PAPP5: type 5 serine/threonine protein phosphatase of Arabidopsis thaliana interacting with phytochromes, SEQ ID NO: 4
interaction with phytochrome A in yeast two-hybrid [1]: interacted specifically
binding to phytochrome A (phytochrome A): has the property of binding

From patent US7728193B2, “Phytochrome-interacting protein and a use thereof” (Genomine Inc., priority 2004, dated 2010)
